This note sets out measurements from patent US20190127434.

B1: Recombinant Human UCH-L5/UCH37 (protein)
chain: MTGNAGEWCLMESDPGVFTELIKGFGCRGAQVEEIWSLEPENFEKLKPVHGLIFLFKWQPGEEPAGSVVQDSRLDTIFFAKQVINNACATQAIVSVLLNCTHQDVHLGETLSEFKEFSQSFDAAMKGLALSNSDVIRQVHNSFARQQMFEFDTKTSAKEEDAFHFVSYVPVNGRLYELDGLREGPIDLGACNQDDWISAVRPVIEKRIQKYSEGEIRFNLMAIVSDRKMIYEQKIAELQRQLAEEEPMDTDQGNSMLSAIQSEVAKNQMLIEEEVQKLKRYKIENIRRKHNYLPFIMELLKTLAEHQQLIPLVEKAKEKQNAKKAQETK
B2: Recombinant Human USP2 Catalytic Domain (protein)
chain: NSKSAQGLAGLRNLGNTCFMNSILQCLSNTRELRDYCLQRLYMRDLHHGSNAHTALVEEFAKLIQTIWTSSPNDVVSPSEFKTQIQRYAPRFVGYNQQDAQEFLRFLLDGLHNEVNRVTLRPKSNPENLDHLPDDEKGRQMWRKYLEREDSRIGDLFVGQLKSSLTCTDCGYCSTVFDPFWDLSLPIAKRGYPEVTLMDCMRLFTKEDVLDGDEKPTCCRCRGRKRCIKKFSIQRFPKILVLHLKRFSESRIRTSKLTTFVNFPLRDLDLREFASENTNHAVYNLYAVSNHSGTTMGGHYTAYCRSPGTGEWHTFNDSSVTPMSSSQVRTSDAYLLFYELASPPSRM
B3: UCH-L3, human recombinant (protein)
chain: MEGQRWLPLEANPEVTNQFLKQLGLHPNWQFVDVYGMDPELLSMVPRPVCAVLLLFPITEKYEVFRTEEEEKIKSQGQDVTSSVYFMKQTISNACGTIGLIHAIANNKDKMHFESGSTLKKFLEESVSMSPEERARYLENYDAIRVTHETSAHEGQTEAPSIDEKVDLHFIALVHVDGHLYELDGRKPFPINHGETSDETLLEDAIEVCKKFMERDPDELRFNAIALSAA

The data set concerns the target K6UbKMRC011.
Regarding B1, the “cleavage by ubiquitin cleavage enzymes, SDS-PAGE analysis (10 mg/L enzyme, 37 C, 12 hours)” value (shortened to “cleavage by ubiquitin cleavage enzymes”) was “the refolded K6UbKMRC011 was cleaved by the ubiquitin cleavage enzymes shown in Table 2 and correctly separated into K6Ub and KMRC011”.

For the protein B2, the “cleavage by ubiquitin cleavage enzymes” value is “the refolded K6UbKMRC011 was cleaved by the ubiquitin cleavage enzymes shown in Table 2 and correctly separated into K6Ub and KMRC011”.

Consider B3, for which the “cleavage by ubiquitin cleavage enzymes” value was “the refolded K6UbKMRC011 was cleaved by the ubiquitin cleavage enzymes shown in Table 2 and correctly separated into K6Ub and KMRC011”.
